Legend:
[1] = target: wild-type human APC segment 3 of Exon 15 (codons 1,099 to 1,696) with N-terminal VSV-G and HSV epito (human) (UniProt P25054)
[2] = target: human alpha-tubulin, cell-free expressed with C-terminal HSV epitope tag and polyhistidine tag (human) (UniProt P50607); assay: protein adsorbed to polystyrene 96-well plate, anti-HSV-AP chemiluminescence; against the minus DNA negative control
[3] = target: human p53 oncoprotein (cellular tumor antigen p53), cell-free expressed from pETBlue-2 with C-terminal HSV epitope tag and polyhistidine tag (human) (UniProt P04637); assay: as above
[4] = target: human glutathione-s-transferase A2 (GST A2), cell-free expressed from pETBlue-2 with C-terminal HSV epitope tag and polyhistidine tag (human) (UniProt P09210); assay: BODIPY-FL labelled GST photo-released from magnetic beads and captured on anti-HSV antibody coated substrate; against the minus DNA blank
human glutathione-s-transferase A2 (GST A2), cell-free expressed from pETBlue-2 with C-terminal HSV epitope tag and polyhistidine tag (human), sequence (P09210 other isoform, or with tags, fused parts or gaps): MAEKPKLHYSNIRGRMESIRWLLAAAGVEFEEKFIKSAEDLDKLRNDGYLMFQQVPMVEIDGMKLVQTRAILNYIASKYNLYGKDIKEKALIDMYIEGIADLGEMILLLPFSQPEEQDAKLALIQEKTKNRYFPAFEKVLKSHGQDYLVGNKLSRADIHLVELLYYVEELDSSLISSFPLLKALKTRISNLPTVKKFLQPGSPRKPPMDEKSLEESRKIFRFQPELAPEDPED

[5] = target: human glutathione-s-transferase A2 (GST A2), cell-free expressed from pETBlue-2 with C-terminal HSV epitope tag and polyhistidine tag (human) (UniProt P09210); assay: cell-free expressed HSV-tagged GST captured on anti-HSV PC-antibody NeutrAvidin agarose beads; fractions quantified by fluorescence SDS-PAGE
[6] = target: human dihydrofolate reductase (DHFR), cell-free expressed with C-terminal HSV and polyhistidine epitope tags (human) (UniProt P00374); assay: antibody-protein complex photo-released from beads, held on nickel chelate plate by the protein's polyhistidine tag; bound anti-HSV antibody read with anti-[mouse IgG] HRP; against the minus DNA negative control
[7] = target: human glutathione-s-transferase A2 (GST A2), cell-free expressed from pETBlue-2 with C-terminal HSV epitope tag and polyhistidine tag (human) (UniProt P09210); assay: as above

wild-type human APC segment 3 of Exon 15 (codons 1,099 to 1,696) with N-terminal VSV-G and HSV epito (human), sequence (P25054 other isoform, or with tags, fused parts or gaps limits assumed): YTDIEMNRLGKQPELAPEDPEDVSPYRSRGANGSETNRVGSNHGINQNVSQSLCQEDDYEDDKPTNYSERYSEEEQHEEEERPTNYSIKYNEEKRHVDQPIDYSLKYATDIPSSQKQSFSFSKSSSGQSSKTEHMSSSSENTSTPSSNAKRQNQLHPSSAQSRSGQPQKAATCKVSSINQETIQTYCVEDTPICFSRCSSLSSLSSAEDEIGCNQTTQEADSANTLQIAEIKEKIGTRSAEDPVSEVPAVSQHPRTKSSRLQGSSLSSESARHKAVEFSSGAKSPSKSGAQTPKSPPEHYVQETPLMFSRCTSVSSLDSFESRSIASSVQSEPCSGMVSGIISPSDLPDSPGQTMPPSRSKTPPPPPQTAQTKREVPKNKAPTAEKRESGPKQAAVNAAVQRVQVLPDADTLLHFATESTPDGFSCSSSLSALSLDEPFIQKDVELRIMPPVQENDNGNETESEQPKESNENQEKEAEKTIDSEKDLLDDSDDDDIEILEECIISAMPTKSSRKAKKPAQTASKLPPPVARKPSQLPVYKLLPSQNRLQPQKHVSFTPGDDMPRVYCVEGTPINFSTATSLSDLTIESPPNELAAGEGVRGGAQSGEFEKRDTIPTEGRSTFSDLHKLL

Substance	signal to noise ratio [1]	signal to noise ratio [2]	signal to noise ratio [3]	signal to noise ratio [4]	percent of total GST bound [5]	percent of total GST not bound [5]	signal to noise ratio [6]	signal to noise ratio [7]
anti-VSV antibody conjugated to the Cy3 fluorophore (clone P5D4; Sigma-Aldrich, St. Louis, Mo.)	186 :1	–	–	–	–	–	–	–
mouse monoclonal anti-HSV tag antibody (EMD Biosciences, Inc., San Diego, Calif.)	–	140 :1	609 :1	9 :1	75%	25%	19 :1	108 :1
